The assay concerns the target VASP (UniProt P50552). In words: co-immunoprecipitation, immunoblot. Particulars: reference: wild-type Zyxin; sites S142,S143. (A western blot detects proteins with antibodies after separation by electrophoresis.)

“Zyxin (from UniProt Q15942) Zyxin S142A/S143A”: the “binding against the reference” value is “lost”.
